Measured values as given in the DeepSol protein solubility set.

assay: soluble on expression in E. coli; label from the status in PepcDB or PDB records

Sequence	soluble on expression in E. coli
MSDENLETESTSKALEDILSYTDSPAFRHIFSFFLGRPRIRAKSTLNLDILSEEVVIRKGKLIHTWQNARAVFYNSNIRLQTKNNQDEALQIRNMKVDVHESKRGRALRLKDDDVCYLIIFQRPNILEAWLTRAQQVEKSNHVDASDEQLTLIPEQILNNEARVQILNLRRNSLISRPPTEKSMAPLGYIDDLYRVHSLQVIDLSANQILSFPIQLTLLSHLRQLNLSSNYISSVPSECSNMRRLQYLNLSNNQLDTLPDSISELQNLQSLDISFNQFSQIPPCLFHLTLEMWRLAGNNIEKIDRVGEMQIQKIDLRRNVLDTSFRLDIENITHLDLRDNSMISTVHLTNLRFLKVIHCERLQLSSLHLSGESLTHVYADHNLLDSLVVMPLPQNLQTLSLSFNHFRNLPDWISDCPNLTFLRANNNSLVALPERIFYSQSLRSIFAFINEIEHIPDFGEENCLETLILYKNKLSSLPKHFFSILPRLRQLNISSNFIELLPYFDGSSFCRLQILRCANNYLTENSVPVIVNMKHLKIIDLSHNRLNSFDDSALSSLELLEDLNLSSNRLTRLADCLALLPCLQVLRAHSNQLVHVPEFRASNQLHTIDVSSNNISLGTLQFKAPPNLRHFDVTCNSGDFDTENFPENAKMHSKMNTINISEGSQNLFGFQIGVSGSRGMKNKQCIRQVRVENTFGFIDGGSNSYMSSSICRFMTSYLKENVSMDIRSILLRCHCELGEEGERLGASVMIIRVHEKRLEIASTGTMSAAIARNQKLKMIINGRYEIDDDEYSRIREAHGFVDEENRINGVIGSSRQIGHFSTFPVVLPTHSYRNIQLNEQIEGLIVGNNMIWNMLSIDDLNSTFHNNRSPIVVAKKIQDQLQSYDYGGNSNILVLRRIKPQMTFNGFSTSSTKNQVTPDIAIPKIDEQLVLAVPALILPEYHPSPPVPPPIPAIRHRTPSPPPPPLPSSTPPPVSSEHEEINVRQSSTLSGGYTLSIDRFYSSSSTVSSRKQFNETRDLLSKSLKLSPPNTVTFNI	not soluble
MSDGHHNGHEHVPSRQRRRFPGISSRAYEHPADRSALVALRKLSGFDTVFKALSGLLPERSLRLLFLSDSVRVSDRQFAHLNVMLRDACYILDLEKVPPMYVNQDPVPNAMCIGLDEPIIVVTTGLVELLDEEEMRAVVGHEVGHALSGHAVYRTILLFLTSLAVRVAWIPLGNVAIMAIVTALREWFRKSELSADRAGLLVGQDLQASMRGLMKIAGGNHLHEMNVDAFLEQAEEYEAGGDLRDSVLKILNVLPRSHPFTTVRAAELKKWAASRDYQRIMDGHYPRRDEDRNTSVRDSFRESASHYATHVRSSKDPLMKLVNDIAGGAGDLGDRMRRGFGGFTGSQPRPPEDDGGPAQGPGGSGRPDGPDRPEGPEGSGGSEEPGGDGPESPRDGSPRDGALEHHHHHH	not soluble
MSDGKIIHDPVHGSMKIPEELIKLVDTPEIQRLRYIRQLGLANLVYPGANHSRFEHSLGVWYLAKKLSSELDIPRDEALLVQISALLHDIGHGPFSHTFERVYKERLKIGDHMEISRKIIEGKIDIVENGGEIPDIISDLGYSPKEVGELICGVHKKKYLSMIINGDIDVDQLDYLARDAHYTGVAHGIIDLERLLNVMKIHDNELVVDEKGLEAVEGMLVARSLMYSRVYFHRTVKIAEAMLIKGVEFALDSGELFDFWKMTDDRLIVELEDIGGFPSEIIQKIRRRELYKPAVIVGPQDLTGDERRIIASLYKNTKKIRELENELADRVGASEGEVIIELSVPELIISEPRLKQIEISILLGDGKKEPLTKVTPLASAIKRRQTPRWILIIATPPNYVEKVKSVWRKVIF	not soluble
MSDHENTGENTSEYQYKQPPQKSIDELLNADKEDESLKVYKAKLLGQGTVIVDEKNPLRVIVRSVELLINGKTAQSFDLSDPAKLVNSDLSVSIKEGSNYRLSFAFHVQREITSGLHYKHKVKRSGITVENEKYMMGSYAPKLEIQEYKSPNEEAPSGMMHRGKYKVYSKITDDDNNVYLDWQWTLHITKE	not soluble
MSDIEAVVVSDLHLGYEEEMNLHGLFLPRIQRDHITSVMDRIIERYNPQRIIINGDFKQEFSKNLPSEWTDVLYFIDRYDDRDLIFIRGNHDNYLATILSKKNIGMMDFYEDDRYFIYHGDRNMGIKKITILGHEHPSLVLRDRVGGVYKLPAFAFNFRRNVIITPSMSFFSSGTDLSQSLLSEEHFTPALKGMKPSCFRIFAITDEFGLVDFGYLDDLHSSGEQQIRDR	not soluble
MSDILKCIGCGAPLQSEDKNKPGFVPEHNMFRDDVICRRCFRLKNYNEVQDVGLESEDFLKLLSGLADKKGIVVNVVDVFDFEGSFINAVKRIVGNKKIILAANKLDLLPKQINKRRVKEWLKRTARKYGLEADDVVLISAEKGWGIDDLLSSIANIRENEDVYIVGTTNVGKSTLINKLIEASVGEKDVVTTSRFPGTTLDMIDIPLDESSFMYDTPGIIQDHQMTHLVSEKELKIIMPKKEIKQRVYQLNEAQTLFFGGLARIDYVSGGKRPLVCFFSNDLNIHRTKTEKANDLWRNQLGDLLTPPGNPQNFDLNELKAVRLETGKEKRDVMISGLGFITIGPGAKVIVRVPKNVDVVLRNSILLEHHHHHH	soluble
MSDMYDKINELYDRRREIELGGGDEKIEQQHAKGKLTARERIDLLLDEGTFVELNPFIEHRCTDFGLGEKKGPGDGVVTGYGKINGRTVFVFSQDFTVFGGALGEMHAKKITNIMDLAAKTGAPVIGLNDSGGARIQEGVLSLDGYGHIFYRNAIYSGVIPQISVIMGPCAGGAVYSPAITDFVFMVEKTSQMFITGPKVIEAVTGEKISAEDLGGARVHNTISGNAHFAAANEEEALAEVRRLLGYLPSNNNEKPPFGPIPDGDDYRPDLADVVPIDAVRPYDVRHVIAQVVDDGSFMEVQKDFAKNIVIGFARIKGEVVGLVCNQPKFMAGGLDIDSSDKAARFIRFCDSFNIPIITFEDVTGFFPGVKQEHGGIIRHGAKILYAYSEATVPKITVILRKAYGGAYVALNSKSIGADVVYAWPNAEVAVMGPQGAANIIFAGEIEKSPNPEETRAQKIAEYREKFANPYVAAKYGMIDDVIDPRDTRIKLIQALEMLRNKHEERPKKKHGNIPL	not soluble
MSDNNTLRMAEMLDKQNSRQHDFMKLMMEMNNSARLSDQARDDRNAIRNENNLKEVFNKLIEAQKEESPIDISIKIRR	not soluble
MSDPKQKSDDLPEQVEQPEQGGGNDGQEEDVQMAEVSEQELERVRTLLHRDWMYSFTPERVRRYHLNRSDYLNEEIRHSQRAIRNALLGYKHASNSRKTCRTDLLDTTWILENLELVGRQLPRESSSQGNPNQESVQELHRQICQLFEDDALAVCERGHNQEVALDLASQVIATHMRTIREFQEEYFKVTGKKHELKKLEDNAYGVLLTPSPKRMPKNFQRRRSDGDDDDDGPGNWGNLNPVAPV	soluble
MSDPRDLMSEFQKLRVETSKIQNEFKEKPGYVEDKLHKNTQEICQQILKKQGKSQKSQENQNAFIENLMSELKTAKSKLNETENQISDLHEATKQQESQANLWNDLVAKISDKNLEMMLKIQKSQDLMIMKMQEGSAVQDVPIETEKSAKNGPFFEILVIWTDSRGPVVPGNHGKLRVCGSDTIRQIKPRINSLAGIDTISFRTFCDDKFLEDDHTLAHYNIREGSTICVFFH	not soluble
MSDPYMPLTSVRSGAGFEAAKGVHGLTVQIANVYFIQLPSEPHSFVLIDAGMPQSAGVIVNEAKQRFGEGFQLKAIILTHGHFDHIGAIEEILEHWDVPVYIHSREMPYVTGKEDYPPARPDSKSGLVAKLSPLFPRHSIDISSHVQALPEDGSVPFLDEWMWIATPGHTPGHISLFRDDGRVLVAGDAVITVEQEKMADVLIQKQELHGPPAYFTPDTETAAESILKLAGLEPEALLTGHGIPMTGKNFRSDLTELANRLSSILEHHHHHH	soluble
MSDQLQMTDGMHIIVEALKQNNIDTIYGVVGIPVTDMARHAQAEGIRYIGFRHEQSAGYAAAASGFLTQKPGICLTVSAPGFLNGLTALANATVNGFPMIMISGSSDRAIVDLQQGDYEELDQMNAAKPYAKAAFRVNQPQDLGIALARAIRVSVSGRPGGVYLDLPANVLAATMEKDEALTTIVKVENPSPALLPCPKSVTSAISLLAKAERPLIILGKGAAYSQADEQLREFIESAQIPFLPMSMAKGILEDTHPLSAAAARSFALANADVVMLVGARLNWLLAHGKKGWAADTQFIQLDIEPQEIDSNRPIAVPVVGDIASSMQGMLAELKQNTFTTPLVWRDILNIHKQQNAQKMHEKLSTDTQPLNYFNALSAVRDVLRENQDIYLVNEGANTLDNARNIIDMYKPRRRLDCGTWGVMGIGMGYAIGASVTSGSPVVAIEGDSAFGFSGMEIETICRYNLPVTIVIFNNGGIYRGDGVDLSGAGAPSPTDLLHHARYDKLMDAFRGVGYNVTTTDELRHALTTGIQSRKPTIINVVIDPAAGTESGHITKLNPKQVAGN	soluble
MSDSDSVGESSHPKKTAPKKEKASPKNKKDDANESMVMTEEDRNVFTSIDKKGGGSKQMAIVDIYQKKSQLEHILLRPDSYIGSIEHTEKKPMWVYNMEDSKLEQRDISYVPGLFKIYDEILVNAADNKQRDRKMNTIRVTINKAKNEISVYNNGKGIPVTQHKVEKVFVPELIFGSLLTSSNFVGNQKAMIGGRNGYGAKLCNIFSTKFTCETSSRVYKSAFKQTWINNMTRDEEPTIVPSTDEDFTKITFSPDLAKFKMKELDDDICHLMARRAYDVAATCKGVDVILNGEMISVKGFEDYVKMYTSQITFEGEPLKTVYEQIGNRWQVALALSDVGFQQISFANNVSTTKGGRHVDHVVDQMIARLKGSIKQELSKDVDPFMIENHLWVFVNCLIEWPTFDSQTKEMMTLRHDRFGSTCALSKKFCKTALQIGLIRQISREIGVDIRENLVQKASESSPIKCIPKLEDAKEAGTKTSERCTLIVTEGDSAKTLAISGLSVVGRDKFGVFPLRGKLLNVRDASVKQIAENAEVNAMIKILGLQRDLKYEFDDEFRTLRYGKLMIMADQDQDGSHIKGLIISFLHHFWPSLIQRNFVEEFITPIVKATKGKEEVSFYSLPEYSEWRTNTDNWKSYKIKYYKGLGTSTAKEAKE	not soluble
MSDSGRADALLAQLPREGRGRLKVFLGAAPGVGKTYAMLQAAHAQLRQGVRVMAGVVETHGRAETEALLNGLPQQPLLRTEYRGMTLEEMDLDALLKAAPSLVLVDELAHTNAPGSRHTKRWQDIQELLAAGIDVYTTVNVQHLESLNDQVRGITGVQVRETLPDWVLQEAFDLVLIDLPPRELLERLRDGKVYVPEQARAAIDAFFTQTNLTALREMAMQTAAAQV	not soluble
MSDTHGKFIWVELMTPDMEAAARFYGHVVGWQTKDFGSPEMPYLVLEADGKGMGGVMELTEEHKGQGIPPNWTAYVDVDDVDATAKLFADKGGAIRRPPQDIPEIGRFAVVADPYGAVLCIMTPLPMETGGFPEDMQEKKGHVGWYELFTDNVDEAMAFYGEVFGWTKDHDFDMGEMGPYRIFAHKGKAVGGIMKRMPQVPVCHWGYYFNVDGIEDAITRVSTGGGKVVNGPMEVPGESWIVNCVDPQGAYFSLVSQKK	not soluble
MSDTPSKKQKRRATIFVTGPQSKKTIFEGEEIKEEGNQTTLQDLAIARQRLHNELAVVNTTSGIEILMQIVMDELEVVRHRLRENGQRMRNFFGDGAVQIRAILIRIFSKSISSRNMLEYKKDAKVILNELCDQNITYKMPRYTLNDMEEILLTDDLEDGVIQRRSEKWECLPERQKPMFDEDEDAFCEFRKMNVPMSMTFDDDDEDRLSMPSTRTGVTALTTEDQMAAIQNQLAMLSKQLMCLQKSGVETKRASSRASSRRGGIIAKKASLEISSNSSSDVSEDEGKGPSVCSPSSSSKTSTASVQLAPMCMAPPPPPPPPLPKMSQKIPLSEIKSDNKLSTVTPSKPAEKKSSPKSLPPAETIVSNRPYLTDIAHGRSMLKKTVRSPGGSPACQVRHQKRPVSSFEAALRDRFRGFHGDASFSEQEENGEDDDLSATWDE	not soluble
MSDTVVASAAVQAPAKTVKSPKAAKTTKVPKAKKPVAHPPYINMVTAAINGLKERKGSSKIAILKYITKNYNVGDQIIKINARLRDTLNKGVVSKALVQSVGTGASGRFRVTEKKAAAAKKPVAKKAATGEKKAKKPVAQKAATGEKKAKKTTATKTKKTADKVKKVKSPKKIAKPTAKKVAKSPAKKSAPKKAAAAKPAKKAVAPKT	soluble
